Measurements taken from a protein production outcome set (Wang et al. 2014).

Assay: label from the status in PepcDB records
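Note: failed if final PepcDB status was selected cloned or expressed and not failed if soluble or beyond.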

| Sequence | protein production |
| --- | --- |
| MSLSTIRIGGAAVNQTPIDWENNVKNILDAIEEAKNANVEILCLPELCITGYGCEDLFLTDWVAETAIEYCFEIAASCTDITVSLGLPMRIAGITYNCVCLVENGIVKGFSAKQFLANEGVHYETRWFTAWPRNHTTTFLYNDVKYPFGDVLYNVKDARIGFEICEDAWRTDRVGIRHYEKGATLVLNPSASHFAFGKSAIRYDLVIGGSERFDCTYVYANLLGNEAGRMIYDGEVLIAHKGKLIQRNDRLSFKNVNLIYADIATDSAETPETVLTQDDLEKEFEFWEATSLGLFDYMRKSRSKGFVLSLSGGADSSACAIMVAEMIRKGLKELGLTAFLQKSNMETLFDLPALQHLPFEEQAKKITAVFLTTAYQSTRNSGDETYTSAKTLAESIGATFYNWSVDEEIEQYKATIENVIERPLTWEKDDITLQNIQARGRAPIIWMLTNVKQALLITTSNRSEGDVGYATMDGDTAGGIAPIAGVDKDFIRSWLRWAEKNRNQHGLHIVNKLAPTAELRPSEYTQTDERDLMPYDVLARIERKAIKERLSPVQVYTALLTEGPYTKNEFKYWVKKFFRLWSINQWKRERLAPSFHMDDFNIDPRSWYRFPILSSGFAKELNDLDQEGHHHHHH | not failed |
| MFRAMHLSLLGCLLGTSGCHGLPPAPPAPSAAVGNYGEVIDYLQRHIRREMERQDVPGLALALVDDQQLVWARGFGYADRQHRINASEHTAFHAGDLSKLLIASATLQLAERGQLSLDAPLQDTLREFYVRSRFHADQSEADRAITFRRLLSHQSGLPGEHLPPLFGERPNSLGQLPAKVSGVWLSNPPGTQVAHSNLGYELVGAAIERNTGKHFEQHMREHLLDPLQMTRSSFARNALPQAQRAHGYSGGGRPGSASDLPVNDLWSSPVDLSRFVRMLFANGRHKERQLLRKHSVEEMFRQQNAGNALDFDCQVGLAWFLSPCGSAPLEGGIRHYEYASATPGFSAHLILLPEQRLAAIVMSNADDSGSLTASLARQAASLMLQVKQGARRPAVQPTPARAPALEVPSPEDRRQLYGRYATRQGQIRLYERRGRLYADFGEQRVELLRDTSGWLQMRKRLLGFWPVGVDSAGQLQLDVVSYGQRRILVSRRHDQTAYLGERIEPTSLPQAWTEAVGTYRVASTGRHSYLNGLSIRIEDGFLLVRGQAGGTRSGEFILQPIDSAHAVLAGSGQGLGDTFSRDFDGLNALGYRFAQQDTKARPWLQRKESP | failed |
| MCAFNGAALTALGISHSALLAHSPQGCEYLVNNAFASQECDYMETMTLCTKLCVDEIVHGGEDILARTIREVKDLPISALFVLSACGPEIVGDDIVGVCEALQPEVKFRLVPIESAGFRGSQYDGIDIAMDTILKKLVKDDVEKIPGSVCLEHHHHHH | failed |
| MKQARRHCWRRGIAATLIGGVISRRGTRASIGRDGLQLRFAALPWRTRCVAAAFCRFVKRSTRTPRARQESAVGLATLDIVIVLVYLTGIFVLAQWVSREKAGHSKSAEDYFLASKSLPWWAIGASLIAANISAEQIIGMAGSGYAIGLAIASYEWMAALTLLIVGKFFLPIFLRNGIYTMPQFLEQRYGKWIRTLMAVFWLLLYVFVNLTSILWLGSIAVSQVTGMDQTLALALIGVFALVYQLYGGLKAVALTDIVQVTLLVLGGLLVAALTLARIGDGAGVLEGFQHLWNAHPEHFHMILTKDNPFYKDLPGLSVLLGGLWVMNISYWGFNQYIIQRALAAKNIGEAQKGMVFAAFLKLLMPLVIVVPGIAAVVLAPDLAKPDQAYPTMMQLLPTGMLGLVFAALVAAIVASLASKINSVATIFTLDFYAKFRPQTEQKQLVRVGRIVAAVSVLIGILTARPLLGNFDQGFQFIQEFTGFFTPGVVVIFMLGLFWKRANEAGALTAAIGSVVLSFVLKFAWPELPFMDRIGVVFVAALMLAVLVSLLTPATQARDLIRTNEVAYGTTLSFKIGAAGVIAILIVLYTVFW | failed |
| MKHDKKNSKIIPFPNVKERLVHKGMGALKEKNYHEALRLFSEAKRYNDEESDIYLGMAICLLEIGELEEAKGICEKMLKEGHGHYFTVLQVYMTILIQLRQYEKVKETIEAVLEENKLPPESAEQFYKLLDFSRKMTEDPGPEDITEDLPETEEVDQERLLNDTEEQVKLLHGLKDRNLTSYIGLLKTILQNPSAHPVVKTMILQLLAESDHEKPTLVAKFGDSMTINPTETVKPDDMPILKHVLSVLDDTLGNENPTLYQAVEELWRRHIYVLYPFQPKYSNRELWAAALHKVGYEMHGIDIDKEELHILYEFNDRQLDEACALIKDIEEISYL | failed |
| MDPKKADIIRLEALPQDLLGGIVAKVGATTAEDFHNCILVCKELGASANDKHVFKTLNLALLVKKPLSGTQTPSYYENMS | not failed |
| MRKDWGDGPGGLGTAMQDKILLIEDSVALSMLLRTRLSDETEAEVVHCASMAEADALMQANNFTLALTGLNLPDAPKGEILTLLSERKVPAIVFTATVDEEARKRYAEKKIIDYIVKDGHRTVDAVVKTVDRIMTNKRFSVLVVDDARTARSGLVEILERQNFKVSEAHSGNRALEILSQDPSIQLVITDYHMPDMDGYELTRRIRDSRSSEDLRVIGISSSTDRLLSASFLKAGASDFVYRPFVPEELQCRIDNNIETLKQLKRLRELAERDHLTGLPNRRSFFERTRALMDVINDNDESGAVAILDIDHFKKINDTLGHDAGDRALKKLAELLQGMCDEQRHIPARLGGEEFAVFLRGLDARAAYAFCEELREQVEKNGRQLSGSSLALTISLGVVEIEKGEPFDNQLNAADQLLYLAKANGRNRVYSDIMIQEGLQKIGLNG | failed |
| MSLLEQLDKNIAASGGLIVSCQPVPGSPLDKPEIVAAMALAAEQAGAVAVRIEGIDNLRMTRSLVSVPIIGIIKRDLDESPVRITPFLDDVDALAQAGAAIIAVDGTARQRPVAVEALLARIHHHHLLAMADCSSVDDGLACQRLGADIIGTTMSGYTTPDTPEEPDLPLVKALHDAGCRVIAEGRYNSPALAAEAIRYGAWAVTVGSAITRLEHICGWYNDALKKAAS | not failed |
| MTTCGEFLVKQLEAWGVETVFGIPGVHTVELYRGLPGSRIRHVTPRHEQGAGFMADGYARVTGKPGVCFIITGPGMTNILTAMAQAYADSIPMLVISSVNERARLAHGNGYLHELPNQRNLVGNVCAFSHTLMSAEELPAVLARAFAVFDSERPRPVHIELPLDVITAPAEHLALRPRTVTSRPAPALAPLREAAARLRNAKKPLLLLGGGCVEAAAEARALAAALDAPTALTINAKGLLPADHPLLLGSNQSCVPVRELATEADVVLAIGTELGETDYDVVFDGGFALDGELIRIDIDPQQLMRNYTPSLAIHSDARLAMRVLLAELPGGEASPDSPGARRAAAVRQRLAEDFAGWSHYRQLFAAILAEWPDARFVGDSTQTVYSGNHLVDLDEPRRWFNASTGYGTLGYGLPAAIGAKLGEPGRPVVSLMGDGGLQFTLPELASAVEAKVGIVVLLWNNHGYGEIKRYMERREITPLGVDIYTPDFLAIARGFGCAAERARDLEHLRELLRGAPADRPLIVEVLQAAPFHP | failed |
| MSEHHHDHSHDHGHAGHQYHAVGSIQIAFFMNFGFTILEAIGGVMTNSTAILANAVHDFGDSIAVGQAWYFEKLSGRTGDKRYSYGYQRFSIFGALVSALMMLASSFLVLVEAVPRLLHPEHPNAKGMVAFALVGVAVNALAMLRLKGQAGMNARVIALHLLEDVLGWLSVLLVSVVLLFTSLPILDPLLAIVITLYILTGVVKNLRAMVPVFLQAVPSELSLDKVVADIQQTEHVTGVHHAHLWSLDGQRTVFTAHLEIGCDVNPAEYASIKEEIRKLVARHGIYHSTVELEYPGEVCRNESHKDG | failed |
| MSEPLHALARQLEQAIRASEPFQQLKRAYEDVRRDETAYRMFANVRDIQLRLHEKQMRGAAILPDEIEQAQKAMALAQQNEKLARLMALEQQMSITIAEVQQIAMKPLEELHRSFMEGR | not failed |
| MHLSAYLLLVASLLFALFFAGTAAIQIWQGRTTALPWMEKGHLMLTAFMSVASAVLLHALANFDFSLVYVASYTDRALPLFYRLTAFWAGQAGSMLFWGWSVALFGVFFLFSPVYRRVSEPTRMWFWLLFLAMMGFFLLVLTCWSNPFTVVDPAPADGNGLNPLLQNPGMIFHPPLLFLGYGGFAIPGCLALAQSLSGMRLSEGAWADHARPFTLVAWLFLTAGIVLGGWWAYMELGWGGYWAWDPVENASLIPWLIASAYLHTAVIEARRNKLHRVNTFLMALTTISAFFATYLVRSGVVESLHAFGDGGVGTPLLIFIIVFTAVALGGSILWKHPDAKPLSGVESREGFLVMVAWVLLALGAIILVATMWPVFSKFWVDKPVGLEPAFYNRVCLPLFAVLVVMLAICPWLGWKGGLRNKVGAVTALGLFVGAAGGIWAAGYTIPTAVLGAAGAIAALGGIVMLLATEPHLRRSPQSLAAYGVHIGLALTALGVAFSGPYKTEHEVIMQQGDTVQVAGYDVTFKALYEGEGPGYIFIEAELDVKKNGSDVGMAQPQRRIYSKFGKQAFAEASTIPGLGNEFYAVLLGVDREGKATLHLNVTPLINWVWIGSIIMCLFPFIGMRRRKTAEA | failed |
| MKTTYNRWWKKKVWFGRKDMSYKVIVDSCGEFTPEMKADGGFEHVALGIQIEDTQWTDDDSLKQEELLLKIAESTSCAKTSCPSPERYMESYHCDAERIYVVTLSAELSGSYNSAVLGKNLYEEEYGEKQIHVFNSRSASVGETLIALKVQQCEKAGMTFEEVVESVECYIEEQHTYFVLENLDTLRKNGRLTGIKSLVAGALNIKPIMGSTPQGTICQKEKARGMKKALVKMADCVAADVVNAGDKILAIAHCNCEERAKEVQRLLKERFAVKSSFIVDTSGISTVYANDGGIIVVV | not failed |
| MTPNKEDYLKCIYEIGIDLHKITNKEIAARMQVSPPAVTEMIKRMKSENLILKDKECGYLLTDLGLKLVSELYRKHRLIEVFLVHHLDYTSDQIHEEAEVLEHTVSDLFVERLDKLLGFPKTCPHGGTIPAKGELLVEINNLPLADIKEAGAYRLTRVHDSFDILHYLDKHSLHIGDQLQVKQFDGFSNTFTILSNDEDLQVNMDIAKQLYVEKIN | not failed |
| MSDIESLGEAAGLFEEPEDFLPPPPKPHFAEYQRSHITKESKSDVKDIKLRLVGTSPLWGHLLWNAGIYTANHLDSHPELIKGKTVLELGAAAALPSVICALNGAQMVVSTDYPDPDLMQNIDYNIKSNVPEDFNNVSTEGYIWGNDYSPLLAHIEKIGNNNGKFDLIILSDLVFNHTEHHKLLQTTKDLLAEKGQALVVFSPHRPKLLEKDLEFFELAKNEFHLVPQLIEMVNWKPMFDEDEETIEVRSRVYAYYLTHEK | failed |
| DAVELFKKANAMLDEDEDERVDEAALRQLTEMGFPENRATKALQLNHMSVPQAMEWLIEHAEDPTIDTPL | not failed |
| MQLIRGFHNLANYDALKKGCVLTIGNFDGVHIGHQNILARLCDQSLAIGLPSVVMLFEPQPREFFAKNSQNQTASALSNAVPARLMRLRDKLKYLAEMGVDFVLCVNFNQKFAKYSAEDFITELLVKKLKVRYLSVGDDFRFGIERRGNFEMLRNAGLTHRFAVEESHTHRFDTLRISSSLIRQALQQNDLALVENLLGKPYSIRGRVAHGNKLGRTIGFPTANIMLNRLVTPIQGVFIVEVQTIYGRFNGIANVGNRPTINGTKPLLEVHIFDFNNAIYHQIIEVIFIKKIRDELKFASFTLLKEQIEKDCQQAVEFFNQLPKTK | failed |
| MIEKILLAVSGLGHAEEMLKTLKEVPSIQSAKVTVLHVVPSQATSSAMTDKWEEGGKILANAIQALNLDPSQVSSILRQGDPKDVVCQVADEIDADLIIMGSRGLKRLQSILSNSVSQYVFQLSSRPMLLVKDDIYVKRIKRVMVAMDNSDAAKHCLNLALFLLRGIVGSQLILANVTTDLRGKTSEVSEISPDKNPVLASAVAEAQRYGIQTRCFTSSGKPGEEICRLADELNVDLLLLGSPDRRPSVAKNFVDIDRLIGASLSDYVRVNASCPVLLARTTG | failed |
| MELPEKPQLYLITPPEFELSSFPDVLARVLDTHKVACVRLELAARDEDTVSRAADALREVTHARDIALVLSDHSVLADRLGLDGVHLSDAARSVRETRKLLGEDAIIGSFCGTSRHDGMSAGEAGADYICFGPVAASSLGDGSYVAQEVFEWWSEFIEVPVVAEGGLDAARIAQLTPFTDFFAFGQEVWSAEYPAQRLGELLEAMG | failed |
